# PMC5096715
# Columns and labels:
# [1] = target: complement component C3b, serum-derived (human) (UniProt P01024)
# [2] = target: complement component C3b, serum-derived (human) (UniProt P01024); remark: listed apart in the source
# C3d C3d (Homo sapiens) = C3d C3d (Homo sapiens) (UniProt P01024); experiment: biolayer interferometry; settings: cited from earlier work
# C3d C3d (Homo sapiens), sequence (P01024 1002-1303): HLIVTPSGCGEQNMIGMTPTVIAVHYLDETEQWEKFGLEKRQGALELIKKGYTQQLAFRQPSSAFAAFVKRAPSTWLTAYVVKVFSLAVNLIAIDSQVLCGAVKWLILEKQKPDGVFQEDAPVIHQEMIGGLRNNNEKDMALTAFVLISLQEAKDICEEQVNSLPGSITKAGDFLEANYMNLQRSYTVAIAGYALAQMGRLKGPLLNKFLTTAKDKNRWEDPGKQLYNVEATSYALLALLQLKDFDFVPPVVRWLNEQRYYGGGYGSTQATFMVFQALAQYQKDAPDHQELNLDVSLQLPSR
# complement factor H (CFH), recombinant, sequence (P08603 19-1231): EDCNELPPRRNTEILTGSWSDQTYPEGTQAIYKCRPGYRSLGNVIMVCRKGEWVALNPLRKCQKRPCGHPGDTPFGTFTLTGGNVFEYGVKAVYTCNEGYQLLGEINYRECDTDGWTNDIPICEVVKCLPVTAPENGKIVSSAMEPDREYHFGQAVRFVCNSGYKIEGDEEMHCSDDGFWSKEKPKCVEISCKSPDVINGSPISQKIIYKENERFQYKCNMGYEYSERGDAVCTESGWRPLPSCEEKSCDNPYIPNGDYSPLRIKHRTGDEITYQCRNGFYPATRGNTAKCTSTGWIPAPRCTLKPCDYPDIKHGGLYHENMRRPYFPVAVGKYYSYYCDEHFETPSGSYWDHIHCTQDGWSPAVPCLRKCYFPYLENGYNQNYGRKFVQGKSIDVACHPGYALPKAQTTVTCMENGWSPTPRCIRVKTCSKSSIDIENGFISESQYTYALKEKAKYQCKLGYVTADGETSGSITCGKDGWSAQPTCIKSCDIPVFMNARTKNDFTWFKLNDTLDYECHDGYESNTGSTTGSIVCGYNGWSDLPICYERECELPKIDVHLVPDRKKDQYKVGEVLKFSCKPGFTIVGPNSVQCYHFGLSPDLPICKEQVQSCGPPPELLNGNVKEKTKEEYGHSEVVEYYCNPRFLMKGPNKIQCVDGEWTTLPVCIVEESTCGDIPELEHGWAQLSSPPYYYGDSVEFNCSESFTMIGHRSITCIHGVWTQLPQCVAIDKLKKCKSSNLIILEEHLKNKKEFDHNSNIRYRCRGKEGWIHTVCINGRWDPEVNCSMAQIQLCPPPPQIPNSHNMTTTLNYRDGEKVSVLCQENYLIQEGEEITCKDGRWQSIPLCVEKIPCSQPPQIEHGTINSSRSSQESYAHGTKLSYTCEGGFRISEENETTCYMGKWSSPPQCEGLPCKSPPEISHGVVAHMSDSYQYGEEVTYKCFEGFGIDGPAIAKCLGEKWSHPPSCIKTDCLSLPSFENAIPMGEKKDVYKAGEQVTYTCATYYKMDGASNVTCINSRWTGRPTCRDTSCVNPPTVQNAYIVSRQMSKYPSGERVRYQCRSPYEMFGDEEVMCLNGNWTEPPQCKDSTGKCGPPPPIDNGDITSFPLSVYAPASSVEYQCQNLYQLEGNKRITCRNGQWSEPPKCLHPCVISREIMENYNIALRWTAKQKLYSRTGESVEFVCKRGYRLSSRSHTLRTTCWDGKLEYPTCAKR
# CFHR3, sequence (Q02985 19-330): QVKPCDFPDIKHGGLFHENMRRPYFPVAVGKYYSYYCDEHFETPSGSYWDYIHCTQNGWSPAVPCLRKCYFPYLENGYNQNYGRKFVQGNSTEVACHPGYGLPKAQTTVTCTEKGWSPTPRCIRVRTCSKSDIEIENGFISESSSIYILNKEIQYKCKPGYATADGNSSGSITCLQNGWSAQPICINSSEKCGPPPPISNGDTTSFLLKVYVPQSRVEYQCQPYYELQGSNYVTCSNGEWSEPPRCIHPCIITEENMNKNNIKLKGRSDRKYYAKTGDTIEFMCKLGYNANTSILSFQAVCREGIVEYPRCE
# CFHR1, sequence (Q03591 19-330): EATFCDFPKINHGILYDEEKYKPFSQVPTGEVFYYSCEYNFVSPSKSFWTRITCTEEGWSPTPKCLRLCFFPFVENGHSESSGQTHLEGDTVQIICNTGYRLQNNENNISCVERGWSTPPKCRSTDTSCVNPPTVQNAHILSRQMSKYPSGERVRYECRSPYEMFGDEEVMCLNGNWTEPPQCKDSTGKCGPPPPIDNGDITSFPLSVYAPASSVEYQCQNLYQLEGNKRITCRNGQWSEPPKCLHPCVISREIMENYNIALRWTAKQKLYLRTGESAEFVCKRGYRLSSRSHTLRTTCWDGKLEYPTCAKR
# complement factor H-related protein 1 (CFHR1), recombinant wild-type, sequence (Q03591 19-330): as above
substance,measurement,setting,value
CFHR1 Mut3 (Y52S/S54Y/Y57E) (from UniProt Q03591 19-330) (natural protein),alternative pathway hemolysis of guinea pig erythrocytes in 10% NHS with 140 nM CFH plus 2 μM CFHR1 Mut3 (competition with CFH for C3b; ~8% with CFH alone),[1],12%
CFHR1 Mut1 (N216A/D218A) (from UniProt Q03591 19-330) (natural protein),alternative pathway hemolysis of guinea pig erythrocytes in 10% NHS with 140 nM CFH plus 2 μM CFHR1 Mut1 (competition with CFH for C3b; ~8% with CFH alone),[2],8%
CFHR3 (from UniProt Q02985),Kd,C3d C3d (Homo sapiens),1100 nM
"complement factor H (CFH), recombinant (from UniProt P08603-1 19-1231) (natural protein)",alternative pathway hemolysis of guinea pig erythrocytes in 10% NHS with 140 nM CFH added (~58% without added CFH),[2],8%
CFHR1 Mut2 (Q238A/Y241A) (from UniProt Q03591 19-330) (natural protein),alternative pathway hemolysis of guinea pig erythrocytes in 10% NHS with 140 nM CFH plus 2 μM CFHR1 Mut2 (competition with CFH for C3b; ~8% with CFH alone),[2],6%
CFHR1 (from UniProt Q03591),Kd,C3d C3d (Homo sapiens),1200 nM
"complement factor H-related protein 1 (CFHR1), recombinant wild-type (from UniProt Q03591 19-330) (natural protein)",alternative pathway hemolysis of guinea pig erythrocytes in 10% NHS with 140 nM CFH plus 2 μM wild-type CFHR1 (competition with CFH for C3b; ~8% with CFH alone),[2],23%
